Columns and labels:
[1] = molecular target: human Type 1 IGF receptor (human) (UniProt P08069); experiment: competitive displacement of 125I-Tyr31 IGF-I from IGF-1R
[2] = molecular target: human Type 1 IGF receptor (human) (UniProt P08069); experiment: competitive displacement of 125I-Tyr31 IGF-I from IGF-1R (different receptor preparation from Tables 1A-1C)

Kd [1] [nM] | Kd [2] [nM] | Substance
41.8 |  | α-D-mannopyranoside-O^β-Thr^B30-[His^A4, His^A8, Gly^A21]-insulin (ligand)
8.39 | 3.86 | [Lys^B28, Pro^B29]-insulin (ligand; other documents disagree on this pair)

From EP2877200B1
